Measured values reported in US10835618.

Experiments:
[1] = target: Polyvalent sialyl Le^a-HSA (Isosep AB); test: ELISA on plates coated with sialyl-Lewis^a-HSA, OD 450nm
[2] = target: Polyvalent sialyl Le^a-HSA (Isosep AB); test: SPR (Biacore X or 3000), sialyl Le^a-HSA coupled to CM5 chip; major population
[3] = target: Polyvalent sialyl Le^a-HSA (Isosep AB); test: SPR (Biacore X or 3000), sialyl Le^a-HSA coupled to CM5 chip; minor population; minor population (20%), two-population fit
[4] = target: Polyvalent sialyl Le^a-HSA (Isosep AB); test: ELISA on coated sialyl-Lewis^a-HSA
[5] = target: Polyvalent sialyl Le^a-HSA (Isosep AB); test: SPR, real-time sialyl Le^a-HSA binding, antigen on CM5 chip
[6] = target: Polyvalent sialyl Le^a-HSA (Isosep AB); test: SPR (Biacore X or 3000), sialyl Le^a-HSA coupled to CM5 chip; major population; major population (80%), two-population fit
[7] = target: Polyvalent sialyl Le^a-HSA (Isosep AB); test: SPR (Biacore X or 3000), sialyl Le^a-HSA coupled to CM5 chip; minor population

FG129 mAb (mouse FG129/29 IgG1 kappa) (antibody), sequence (heavy): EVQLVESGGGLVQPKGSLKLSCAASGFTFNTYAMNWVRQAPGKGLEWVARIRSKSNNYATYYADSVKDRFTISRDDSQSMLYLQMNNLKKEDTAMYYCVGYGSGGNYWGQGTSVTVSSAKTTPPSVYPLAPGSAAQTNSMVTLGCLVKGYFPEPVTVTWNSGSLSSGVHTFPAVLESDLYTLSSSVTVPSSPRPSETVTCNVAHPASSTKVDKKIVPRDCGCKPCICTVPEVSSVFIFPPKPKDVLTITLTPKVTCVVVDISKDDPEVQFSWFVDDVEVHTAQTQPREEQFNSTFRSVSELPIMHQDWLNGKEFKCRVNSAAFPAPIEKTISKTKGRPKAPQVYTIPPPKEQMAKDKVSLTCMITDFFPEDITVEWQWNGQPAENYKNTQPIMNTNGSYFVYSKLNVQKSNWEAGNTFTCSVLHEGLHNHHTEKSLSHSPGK
FG129 mAb (mouse FG129/29 IgG1 kappa) (antibody), sequence (light): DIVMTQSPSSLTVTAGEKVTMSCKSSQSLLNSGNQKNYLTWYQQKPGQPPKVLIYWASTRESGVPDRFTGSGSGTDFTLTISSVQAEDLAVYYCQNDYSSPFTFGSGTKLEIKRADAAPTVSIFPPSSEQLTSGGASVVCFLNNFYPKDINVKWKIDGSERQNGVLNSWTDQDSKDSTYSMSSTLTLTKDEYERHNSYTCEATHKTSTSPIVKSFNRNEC

Row | Substance | EC50 [1] | koff [2] | kon [2] | koff [3] | EC50 [4] | Kd [5] | koff [5] | kon [5] | Kd [6] | Kd [7] | kon [7]
1 | CA19.9 (anti-sialyl lewis a Mab) (antibody) | 0.186 nM | – | – | – | – | – | – | – | – | – | –
2 | FG129 mAb (mouse FG129/29 IgG1 kappa) (antibody) | 0.287 nM | 0.00257 s⁻¹ | 19700 M⁻¹ s⁻¹ | 1.35e-08 s⁻¹ | 0.1 nM | 0.2 nM | 0.00011 s⁻¹ | 620000 M⁻¹ s⁻¹ | 130 nM | 0.00014 nM | 88500 M⁻¹ s⁻¹
